Measurements published in patent US20050158362A1, “Polymeric, fiber matrix delivery systems for bioactive compounds” (priority 2000, published 2005).

Assay: In vitro release of FITC-BSA from the fiber matrix into an infinite sink of 37° C. phosphate buffered saline
Type: physicochemical
Conditions: polylactic glycolic acid fiber matrix
Text: To construct the bioactive compound-loaded matrices, various concentrations of finely ground FITC-BSA were suspended in biodegradable polymer polylactic glycolic acid in 50:50 dimethyl formamide:tetrahydrofuran. Suspensions contained in a glass syringe with a capillary tip were electrospun into approximately 500 nm diameter fibers via an electrostatic based self-assembly process in which a high voltage electric field was generated between the oppositely charged polymer and a metallic collection screen. At a critical voltage the charge overcomes the surface tension of the deformed polymer drop at the needle tip, producing an ultrafine jet. The similarly charged fibers are splayed and during their passage to the screen, the solvent quickly evaporates so that dry fibers accumulate randomly on the screen forming a mesh matrix.
In vitro release of the FITC-BSA into an infinite sink of 37° C. phosphate buffered saline was also measured. This sink mimics in vivo conditions.
A 25% (w/v) solution of polylactic glycolic acid was prepared in a 50:50 mixture of dimethylformamide and tetrahydrofuran. […]
In vitro release of the FITC-BSA into an infinite sink of 37° C. phosphate buffered saline was measured. […] The amount of protein released was measured in the form of fluorescence of the FITC-BSA on a spectrophotofluorometer at an excitation wavelength of 495 nm and an emission wavelength of 513 nm.

FITC-BSA: fluorescently labeled bovine serum albumin dispersed between electrospun polylactic glycolic acid fibers of the matrix
in vitro release profile of FITC-BSA: release in the first 24 hours after initiation was dominant
duration of observed in vitro release of FITC-BSA (fluorescence readout): over 120 hours
